Experimental data taken from publication PMC8517210, “Structural and DNA-binding properties of the cytoplasmic domain of Vibrio cholerae transcription factor ToxR”.

B1: ompT (dsDNA)
DNA 1: TTTTATGGTATTTGA
DNA 2: TCAAATACCATAAAA
B2: ompU (dsDNA)
DNA 1: ATTTATATCATTTTA
DNA 2: TAAAATGATATAAAT
B3: toxT (dsDNA)
DNA 1: CTCAAAAAACATAAAA
DNA 2: TTTTATGTTTTTTGAG
B4: ctx (dsDNA)
DNA 1: GATTTTTGATTTT
DNA 2: AAAATCAAAAATC

Columns and labels:
Details in all cases: protein: recombinant; tags: N-terminal His6; chain copies: 2; none in NMR; blunt
[1] = molecular target: T1, cToxR_1-134 (Vibrio cholerae, UniProt P15795 1-134); experiment: NMR CSP titration; mean as printed; T111 14.21 ± 0.31, L99 14.78 ± 6.62
[2] = molecular target: T1, cToxR_1-134; experiment: fluorescence anisotropy
[3] = molecular target: T1, cToxR_1-134; experiment: NMR CSP titration; mean as printed; T111 6.82 ± 1.07, L99 5.16 ± 0.46
[4] = molecular target: T1, cToxR_1-134; experiment: NMR CSP titration; mean as printed; T111 0.15 ± 4e-9, L99 0.63 ± 1e-8
[5] = molecular target: T1, cToxR_1-134; experiment: NMR CSP titration; mean as printed; T111 28.26 ± 5.73, L99 27.88 ± 3.01

T1 sequence (P15795 1-134): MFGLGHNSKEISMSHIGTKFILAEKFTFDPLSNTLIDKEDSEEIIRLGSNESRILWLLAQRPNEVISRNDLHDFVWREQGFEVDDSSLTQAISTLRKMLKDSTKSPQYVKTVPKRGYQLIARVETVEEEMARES

Binder | Kd [1] [µM] | Kd [2] [µM] | Kd [3] [µM] | Kd [4] [µM] | Kd [5] [µM]
B1 | 14.5 | 12.8 ± 1.27 | – | – | –
B2 | – | 5.49 ± 0.91 | 5.99 | – | –
B3 | – | 0.66 ± 0.1 | – | 0.35 | –
B4 | – | 9.71 ± 0.84 | – | – | 28.1
